Data on 20 sequences can be found in the DeepSol protein solubility set.

The data set can be described thus: soluble on expression in E. coli; label from the status in PepcDB or PDB records.
As to “GNIESIENLQGIRALQQQAPQLLSSGLPNEQQFSLLKQAGVDVVINLMPDSSKDAHPDEGKLVTQAGMDYVYIPVDWQNPKVEDVEAFFAAMDQHKGKDVLVHCLANYRASAFAYLYQLKQGQNPNMAQTMTPWNDELAIYPKWQALLTEVSAKYGH”, the “soluble on expression in E. coli” value is given as “soluble”.

With “SNASKEKREKLEAYQHLFYLLQTNPTYLAKLIFQMPQNKSTKFMDSVIFTLYNYASNQREEYLLLRLFKTALQEEIKSKVDQIQEIVTGNPTVIKMVVSFNRGARGQNALRQILAPVVKEIMDDKSLNIKTDPVDIYKSWVNQMESQTGEASKLPYDVTPEQALAHEEVKTRLDSSIRNMRAVTDKFLSAIVSSVDKIPYGMRFIAKVLKDSLHEKFPDAGEDELLKIIGNLLYYRYMNPAIVAPDAFDIIDLSAGGQLTTDQRRNLGSIAKMLQHAASNKMFLGDNAHLSIINEYLSQSYQKFRRFFQTACDVPELQDKFNVDEYSDLVTLTKPVIYISIGEIINTHTLLLDHQDAIAPEHNDPIHELLDDLGEVPTIESLIGESS”, the “soluble on expression in E. coli” value was “soluble”.

Consider “DGRITGMIQVAIDVTEQVVARKKLEESESRFRALVNASSDVVYRMNADWTVMRELEGRDFLTPAGTAMADWVETYTYREDRALVKATAAAAIEGKRIFELEHRVLKADGTIGWTFSRAIPILDEQ”, for which the “soluble on expression in E. coli” value is “not soluble”.

Regarding “AEFQVTSNEIKTGEQLTTSHVFSGFGCEGGNTSPSLTWSGVPEGTKSFAVTVYDPDAPTGSGWWHWTVVNIPATVTYLPVDAGRRDGTKLPTGAVQGRNDFGYAGFGGACPPKGDKPHHYQFKVWALKTEKIPVDSNSSGALVGYMLNANKIATAEITPVYEIKLE”, the “soluble on expression in E. coli” value is given as “soluble”.

“MGSDKIHHHHHHAASITLPSGYTKNAVIKWNQTGKASKALINASKKGMMENTNSDAGSDNTLVNVTKLTNSQKVELSKYTLSLINSARSQLGKKPWTYRSGALRFADRVANQYYTHNKSCWDPDHYVAGILRAAKASGLNSNAGQVYEDEAGLPISSQYGSNLRTMSVLKNQIYFNVKQMLFGGFAGSDSQMNDSSRYTEWEHAGDLLGCRTKNYDAKTKYFGVSFSGLKDDQSKISVHMIGVAKRYIQNYKKFNH”: the “soluble on expression in E. coli” value is reported as “not soluble”.

In the case of “MTMSLEVFEKLEAKVQQAIDTITLLQMEIEELKEKNNSLSQEVQNAQHQREELERENNHLKEQQNGWQERLQALLGRMEEV”, the “soluble on expression in E. coli” value is “soluble”.

“MFEARLTDVRANKLAQAWRLAYEQADGKRRRAMLGGLAQVGAGMQGDGAQGTRLFKRFNALPDGLRFLVALRADMLRWRKQVAGLQALDKELEALLSAWFDVGLLELRPLTWDSPASLLEKLILYEAVHEIRSWDDLRHRVAGDRRCYAYFHPQMPDVPLIFVEVAFSAQMADNVQALLDTSAPPQDLDKARWAIFYSISNTQPGLRGISFGNFLLKRVIDRLLQELPKLKFFATLSPIPGFADWLSRLDAQEVEQAVRDKARTRSGAPDGARWVARLARAATGKPSEVVQRAGLRLAARYLQAMRAGQPLDPVARFHLGNGARIERLNWAADTSAKGLAQSCGMMVNYLYELGDLDGNLARLNEGKPQVSRGIARLGAAALEHHHHHH”: the “soluble on expression in E. coli” value is recorded as “soluble”.

Regarding “MVEVESDSVAERDRSSFLAGHDAIRLAKSCVDSPPERWYAALYQVYADLTKLRCWSNVEVVYSDSATFPTGLLGPLFEEDSMVQELHSAQCILGSERACFHVRCCIVGSPPSGRAINALSPQSETRTEERIITSRREPEVVIAVPMHAMLKLSNLDQALRMSSHIEGIVKNRHVADSSASTHSTDRQAGSRKSSVIFGFVDEDTTTAYYRIREGACESNDRREFSTDDIASCLAQERT”, the “soluble on expression in E. coli” value was “not soluble”.

Turning to “MSLEDIWHKADELCEKNIKIVIRNLGLNLTISFQCYSHLLQNIPSMLGSIPFQRILSERKNKFDNAIVVSAGPSLTKQLPLLKAYQDKAVVFCADGALSMLEKEGVVPDYVLNIDFEDLPLRFFKNKQNKLSLNILSCATHPSLVHFLDNKSVILRDDPLYQSFNLNDFGYIDTGTHVSHFSYTLALALGFKNIIMIGQDLAFDEEGNSHSKGFDFGEKFEEEHKKYKLKTQAYGGKGEVLTHITWNDYRVKLEYLFACNDQKAKFYNATEGGARINFTEELSFKECCEKLLTKEKPKFELPKSLTKNRSDKLLAKFKEKIQKDQENAKRFLDDEGHHHHHH”, the “soluble on expression in E. coli” value was “soluble”.

As to “MKWYTKYLQVYEKPFSEAPQEIVEEVRNKLKLLQSDNPLVTVSLIGYNEEKHLLASLWSLSEMKCKYPIEIIGTDNDSKDQTATIYEATGIPYVIEHQHSCGHARLCGLKRAKGKYHINIDSDTMYPPHYVETMVDALERPGIVAVSSLWSYIPDKEHSWVGLKIYEFIRDIHLWIQSIKRPELSVRGLVFAYRTDYARQVGIRTDIRRGEDGSLALRLKEYGNIYFIRKRKARAITGYGTISADGSLFNSFKVRAIYALKNIGRVFTRKKEYKDEDDNLIKSLEHHHHHH”, the “soluble on expression in E. coli” value is recorded as “soluble”.

For “GKDFTYNASLTFSHARNEIRNMDEPATKTAYRKQEGHPINQYFGLVCDGFVTQADLNNPDFPVSTFGNVQVGDLKYRDMNGDGFIDSRDETFIGYSDVPENTYALSLGCEYKGIGFSIMFQGVDHVSRYYDAEAMYAFVNGGKVKEHHLNRWNPNQSEAYNLTHASYPLLHYDSYGDHNQRKNSFFLKNGNFLRLKNIELSYSLPARWIRKVAMNECRVYVNANNLITWDKLDGLCDPESEGSNRYPIMKTVNFGVNIKF”, the “soluble on expression in E. coli” value is listed as “not soluble”.

Regarding “MNYQDVLDFWFAPDHTNFWFAKDSLFDDEIRTQFSTVHQQATQAELWSWRQTVEGRLAEIIVLDQFSRNLYRDQAQAFAQDSMALALAQEAITQQLDAQLSPEQRSFLYMPFMHSESKLIHEFALKLFQKLGNEINLSFEKKHKVIIDQFGRYPHRNAILGRQSTPEELEFLTQPNSHF”, the “soluble on expression in E. coli” value is “not soluble”.

Regarding “MGSDKIHHHHHHMKILLLNTSDARGGAAVAAMRLMETLQEAGAEVRMLVLNRNTTNPDIMALHSGRCGKTADKYRFLAERLHIYMCNGRDRSRLFHVSTALIGYDVSCHPWVRWADVIHLHWINQGFLSLRGLERLTRCGKSVVWTMHDMWPVTAICHHARECLRYRTECGACPQISSQKEKDLARLVWNRKSRVISLLRPTLIGCSHWLADLARQSALTDGLRIESIPNPIDTNLFAPGSRSDARRIMDLPTDRILLLFGAVQADDPRKGIYELSQAMKRLRERQPDLSKRIALVVFGSLRDEVRSLFPNYKLISIGYIREPSRMAELYRAADLFVIPSLEENLPNTIMEALSVGTPCVAFRVGGIPEMIVSGSTGYLAAFRDPSDLAEGITKTIALQETSPEAVASACRSFVLRHYSREVVSSRMLQLYRELL”, the “soluble on expression in E. coli” value is “not soluble”.

For the sequence “MSLEGHIVITGATGVIGSEVARRLIKSGREVVVFARSPQSAAAKVPGAADYVRWDSDMAPDGWSSSIDGAYAVIHLAGRPLLETRWTEEHKVACYDSRIKGTRALVAAMASASVKPKVFVSSSAIGYYGSFDRCEETDPLTEKAAPGKDFLAKICFDWEKEARPAETLGTRVVLLRTGIVLSTKGGMLQKMMIPFSYFVGGPVGSGDQCLSWIHLDDEVSIILQALDNADWSGPVNAVAPEPVSMKAFADSLGLVMHRPSLFPVPKLAVQILLGEGADYAVKGQKVSPEFLKERDFHFAWPSLNEALADLVSRGEGHHHHHH”, the “soluble on expression in E. coli” value is on record as “soluble”.

Regarding “MSLFQDNPLLAQLKQKIQETLPKKEGTIKASDKGFGFLEVDSKTSYFVPPPYMKKCMHGDKVVAFIRTENEREVAEPSELIEQSLTRFIGRVKLFKGKLNVAPDHPQLKKLSLKAKTKKGLNEADFQEGDWVVAHLVRHPLKGDDGFFVQISHKITDANDKIAPWWVTLAENDLPNSEPAGIDDWQLKDDADLVREDLTALPFVTIDGESTKDMDDALYAQQLPNGDFALTIAIADPTAYITPEDEMDKVARERGFTIYLPGRNIPMLPRDLADELCSLMENQVRPALCCSVTIRKDGVIGDDIRFFAANIKSHARLVYDHVSDWLETGSSEQWQPSEEIAQVVRDLYAFSQARANWRETHAVVFPDRPDYRFELSADNDVVAIHADMRRTANRLVEESMITANICAGKTLQTTFGFGVFNTHAGFKAEKMADVVELMAVNGAPNADAETLATVEGFAALRRWLATQETSYLDNRIRKYQSYSEIGNQPLPHFAMGLDVYATWTSPIRKYGDMINHRLLKAHILGKAPVQTPDETVGEELALHRKHHKIAERNVADWLYARTLADEPAKETRFQAEIFDINRPGMRVRLLENGAMAFIPGALILDNKERIECNGEDGTVLIDKEVVYKLGDVLEIVLTEVNQENRSLVGKPTQVFADLVSETQTSAEQPAEGAENNEPQVEGHHHHHH”, the “soluble on expression in E. coli” value is given as “soluble”.

Regarding “MENVNRNHKNSVFSSLFSTPDVLRELYSAIEGIPIPPDIPIDINTLTDILYKGQINDVSFVINNRLVVLIEHQSTINANIPLRLLMYIARVYEKIINRKKLYQSKLEKIPLPEFIVLYNGEKEYSDFQELKLSDAFKDIDGLKLSGIEKIPLELIVQVYNINHGHNPEILKRSETLDSYSIFINKIREYQKEKDSLEKAARSAIIYCIKNNILKDYLEAHASEVLNMLLTEWNQDEAVEVAREEGREEGREEGHENGLKEGKMIIAKNLLEKGSTPEFVREITGLSPEEIEEIELND”, the “soluble on expression in E. coli” value is reported as “soluble”.

With “MSLNVQGNLFRPLTLPNGLSLENRFVLSPMVTNSSTSEGFVTDDDIAYAVRRAKSAPLQITGAAYITEYGQLFEYGFSVSKDEDIPGLTKLAKAMKSKGAKAVLQLTHAGRFSSHTLARHGYVYGPSPMQLQSPYPHQVKELTHKDILRIIDEYVQATRRAIQAGFDGVEISSAQRLLIQTFFSTFSNQRKDEYGPQTLTNRCRLGLEVFKAVQKVIREEAESDFILGFRATPEETRGSQIGYSIEEFMEFLEKILAIAQVDYLAIASWGHDVFRNTIRSEGVYKGQLVNQVIFEHFGDRVPIMATGGINSASKVFEALQHAHMIGASTPLVVDPEFLQKIKAKCSDQINLRIKVSDLEGLAIPKEGHHHHHH”, the “soluble on expression in E. coli” value is “not soluble”.

For the sequence “MRSDKVGSIKDLPSLPAGVKFDPSDKEILMHLEAKVSSDKRKLHPLIDEFIPTLEGENGICYTHPEKLPGVSKDGQVRHFFHRPSKAYTTGTRKRRKVSTDEEGHETRWHKTGKTRPVLSQSGETGFKKILVLYTNYGRQKKPEKTNWVMHQYHLGSSEDEKDGEPVLSKVFYQTQPRQCGSMEPKPKNLVNLNRFSYENIQAGFGYEHGGKSEETTQVIRELVVREGDGSCSFLSFTCDASKGKESFMKNQ”, the “soluble on expression in E. coli” value was “soluble”.

Turning to “GPGSMVVKDISLADWGRKELDIAETEMPGLMAAREEFGKSQPLKGARISGSLHMTIQTAVLIETLKVLGAEVRWASCNIFSTQDHAAAAIAATGTPVFAVKGETLEEYWTYTDQIFQWPDGEPSNMILDDGGDATMYILIGARAEAGEDVLSNPQSEEEEVLFAQIKKRMAATPGFFTKQRAAIKGVTEETTTGVNRLYQLQKKGLLPFPAINVNDSVTKSKFDNKYGCKESLVDGIRRGTDVMMAGKVAVVCGYGDVGKGSAQSLAGAGARVKVTEVDPICALQAAMDGFEVVTLDDAASTADIVVTTTGNKDVITIDHMRKMKDMCIVGNIGHFDNEIQVAALRNLKWTNVKPQVDLIEFPDGKRLILLSEGRLLNLGNATGHPSFVMSASFTNQVLGQIELFTRTDAYKNEVYVLPKHLDEKVARLHLDKLGAKLTVLSEEQAAYIGVTPQGPFKSEHYRY”, the “soluble on expression in E. coli” value is listed as “soluble”.

In the case of “ERVKWRKQIEASGARLKSMIDQTPAPTLVLMGDNLVIEQVNTSMLKLLGHEENIVGIPLLTLMPELKGQYIWEQVEKVYREGIPFDQSEVRVSHKRTGMMEDYYYNIAYRPLKEDGRITGMIQVAIDVT”, the “soluble on expression in E. coli” value was “not soluble”.
